From patent US20260193326A1 (published 2026)

Legend:
Experiment in all cases: SPR, AAV on CM5 chip
[1] = target: T1, AAV9
T1 construct: also called adeno-associated virus serotype 9
Description: (§1) AAV was amine-coupled to a CM5 sensor chip at a density of 500-800 response units (RU). Nanobodies were injected at seven concentrations (1-100 nM) with a flow rate of 45 μL/min, and chip regeneration was performed using glycine-HCl (pH 1.5). Binding curves at different nanobody concentrations were used to calculate kinetic parameters (Kₐ, Kd, KD) (Table 2 and FIG. 2).

[2] = target: T2, AAV5
T2 construct: also called adeno-associated virus serotype 5
Description: as §1

[3] = target: T3, AAV2 (UniProt P03135 1-735)
T3 construct: also called adeno-associated virus serotype 2
Description: as §1

[4] = target: T4, AAV8
T4 construct: also called adeno-associated virus serotype 8
Description: as §1

[5] = target: T5, AAV5 (adeno-associated virus serotype 5)
T5 construct: also called adeno-associated virus serotype 5

[6] = target: T6, AAV9 (adeno-associated virus serotype 9)
T6 construct: also called adeno-associated virus serotype 9

[7] = target: T7, AAV8 (adeno-associated virus serotype 8)
T7 construct: also called adeno-associated virus serotype 8

B1: A4-011 (VHH)
VHH: VQLQESGGGLVQAGGSLRLSCAASGSIFSINSMGWYRQAPGKQRELVATVTRGGNTNYAGSVKGRFTISRDNAKNTVYLQMNSLRPEDTAVYYCHVDEVRESSWTTSNLWGQGTQVTVSS
[1]
  Kd: 132 nM
  koff: 0.0582 s⁻¹
  kon: 439000 M⁻¹ s⁻¹
[2]
  Kd: 29.6 nM
  koff: 0.00028 s⁻¹
  kon: 9460 M⁻¹ s⁻¹
[3]
  Kd: 284 nM
  koff: 0.0462 s⁻¹
  kon: 163000 M⁻¹ s⁻¹
[4]
  Kd: 30.4 nM
  koff: 0.00272 s⁻¹
  kon: 89400 M⁻¹ s⁻¹

B2: A4-024 (VHH)
VHH: VQLQESGGGLVQPGGSLRLSCAASGSNFRINTMGWYRQAPGKQRELVATVTRGGSTNYADSVKGRFTISRDNPKNTVYLQMNSLRPEDTAVYYCHVDEVRESSWTTSNLWGQGTQVTVSS
[1]
  Kd: 251 nM
  koff: 0.00173 s⁻¹
  kon: 6900 M⁻¹ s⁻¹
[2]
  Kd: 35.5 nM
  koff: 0.00013 s⁻¹
  kon: 3670 M⁻¹ s⁻¹
[3]
  Kd: 639 nM
  koff: 0.00069 s⁻¹
[4]
  Kd: 209 nM
  koff: 0.00148 s⁻¹
  kon: 7080 M⁻¹ s⁻¹

B3: A4-038 (VHH)
VHH: VQLQESGGGLVQPGGSLRLSCAASGSHFSINTMGWYRQAPGKQRELVATVTRGGSTNYANSVKGRFTISRDNAKNTVYLQMNSLRPEDTAVYYCHLDEVRQSSWTTSNLWGQGTQVTVSS
[1]
  Kd: 7.29 nM
  koff: 0.0011 s⁻¹
  kon: 151000 M⁻¹ s⁻¹
[2]
  Kd: 1.57 nM
  koff: 0.00028 s⁻¹
  kon: 178000 M⁻¹ s⁻¹
[3]
  Kd: 0.704 nM
  koff: 0.00014 s⁻¹
  kon: 199000 M⁻¹ s⁻¹
[4]
  Kd: 69.5 nM
  koff: 0.0005 s⁻¹
  kon: 7190 M⁻¹ s⁻¹

B4: A4-012 (VHH)
VHH: VQLQESGGGAVQAGGSLRLSCAASGSIFSINSMGWYRQAPGKQRELVATVTRGGNTNYAGSVKGRFTISRDNAKNTVYLQMNSLRPEDTAVYYCHVDEVRESSWTTSNLWGQGTQVTVSS
[1]
  Kd: 672 nM
  koff: 0.0694 s⁻¹
  kon: 103000 M⁻¹ s⁻¹
[2]
  Kd: 18.6 nM
  koff: 0.00173 s⁻¹
  kon: 93100 M⁻¹ s⁻¹
[3]
  Kd: 1180 nM
  koff: 0.0554 s⁻¹
  kon: 47000 M⁻¹ s⁻¹
[4]
  Kd: 324 nM
  koff: 0.00417 s⁻¹
  kon: 12900 M⁻¹ s⁻¹

B5: A4-044 (VHH)
VHH: VQLQESGGGLVQPGGSLRLSCAASGSSFSINTMGWYRQAPGKQRELVATVTRGGVTNYADSVKGRFTISRDNAKNTVYLQMNSLRPEDTAVYYCHVDEVRQSSWTTSNLWGQGTQVTVSS
[1]
  Kd: 13.1 nM
  koff: 0.00188 s⁻¹
  kon: 143000 M⁻¹ s⁻¹
[2]
  Kd: 7.47 nM
  koff: 0.00137 s⁻¹
  kon: 183000 M⁻¹ s⁻¹
[3]
  Kd: 13.1 nM
  koff: 0.00069 s⁻¹
  kon: 52900 M⁻¹ s⁻¹
[4]
  Kd: 1.52 nM
  koff: 0.00024 s⁻¹
  kon: 158000 M⁻¹ s⁻¹

B6: A4-021 (VHH)
VHH: VQLQESGGGLVQAGGSLRLSCAASGSTFSINTMGWYRQAPGKQRELVATITRGGNTNYADSVKGRFTISRDNAKNTVYLQMNSLRPEDTAVYYCHVDEVRQSSWTTSNIWGQGTQVTVSS
[1]
  Kd: 1.87 nM
  koff: 0.00014 s⁻¹
  kon: 74700 M⁻¹ s⁻¹
[2]
  Kd: 7.81 nM
  koff: 0.00094 s⁻¹
  kon: 120000 M⁻¹ s⁻¹
[3]
  Kd: 0.798 nM
  koff: 4.37e-05 s⁻¹
  kon: 54800 M⁻¹ s⁻¹
[4]
  Kd: 7.41 nM
  koff: 0.00155 s⁻¹
  kon: 209000 M⁻¹ s⁻¹

B7: A4-046 (VHH)
VHH: VQLQESGGGLVQPGGSLRLSCAASGSRFSINTMGWYRQAPGKQRELVATVTRGGSTNYADSVKGRFTISRDNAKNTVYLQMNSLRPEDTAVYYCHVDEVRQSSWTTSNLWGQGTQVTVSS
[1]
  Kd: 16.1 nM
  koff: 0.00269 s⁻¹
  kon: 167000 M⁻¹ s⁻¹
[2]
  Kd: 55.3 nM
  koff: 0.00933 s⁻¹
  kon: 169000 M⁻¹ s⁻¹
[3]
  Kd: 48.8 nM
  koff: 0.00725 s⁻¹
  kon: 148000 M⁻¹ s⁻¹
[4]
  Kd: 37.6 nM
  koff: 0.00455 s⁻¹
  kon: 121000 M⁻¹ s⁻¹

B8: A4-032 (VHH)
VHH: VQLQESGGGLVQPGGSLRLSCVASGSSFSINTMGWYRQAPGKQRELVATVTRDGSTNYANSVKGRFTISRDNAKNTVYLQMNSLRPEDTAVYYCHVDEVRQSSWTTSNLWGQGTQVTVSS
[1]
  Kd: 16.4 nM
  koff: 0.00108 s⁻¹
  kon: 65900 M⁻¹ s⁻¹
[2]
  Kd: 6.7 nM
  koff: 0.0009 s⁻¹
  kon: 134000 M⁻¹ s⁻¹
[3]
  Kd: 2.53 nM
  koff: 0.0004 s⁻¹
  kon: 158000 M⁻¹ s⁻¹
[4]
  Kd: 12.8 nM
  koff: 0.00169 s⁻¹
  kon: 132000 M⁻¹ s⁻¹

B9: A4-034 (VHH)
VHH: VQLQESGGGLVQPGGSLRLSCAASGRGFSINTMGWYRQAPGKQRELVAAVTRGGTTNYADSVKGRFTISRDNAKNTVYLQMNSLRPEDTAVYYCHVDEVRQSSWTTSNLWGQGTQVTVSS
[1]
  Kd: 6.8 nM
  koff: 0.00129 s⁻¹
  kon: 190000 M⁻¹ s⁻¹
[2]
  Kd: 12.2 nM
  koff: 0.00021 s⁻¹
  kon: 17200 M⁻¹ s⁻¹
[3]
  Kd: 3.36 nM
  koff: 0.00066 s⁻¹
  kon: 196000 M⁻¹ s⁻¹
[4]
  Kd: 7.84 nM
  koff: 0.00047 s⁻¹
  kon: 59900 M⁻¹ s⁻¹

B10: A4-048 (VHH)
VHH: VQLQESGGGLVQPGGSLRLSCAASGSMFSINTMGWYRQAPGKQRELVATVTRGGNTNYAGSVKGRFTISRDNAKNTVYLQMNSLRPEDTAVYYCHVDEVRQSSWTTSNLWGQGTQVTVSS
[1]
  Kd: 399 nM
  koff: 0.0013 s⁻¹
  kon: 3260 M⁻¹ s⁻¹
[2]
  Kd: 54.4 nM
  koff: 0.00051 s⁻¹
  kon: 9380 M⁻¹ s⁻¹
[3]
  Kd: 155 nM
  koff: 0.00137 s⁻¹
  kon: 8850 M⁻¹ s⁻¹
[4]
  Kd: 146 nM
  koff: 0.00031 s⁻¹
  kon: 2130 M⁻¹ s⁻¹

B11: A4-039 (VHH)
VHH: VQLQESGGGLVQPGGSLRLSCAASGSGFSINTMGWYRQAPGKWRELVATVTRGGSTNYAGSVKGRFTISRDNAKNTVYLQMNSLRPEDTAVYYCHIDEVRQSSWTTSNLWGQGTQVTVSS
[1]
  Kd: 360 nM
  koff: 0.001 s⁻¹
  kon: 2780 M⁻¹ s⁻¹
[2]
  Kd: 246 nM
  koff: 0.00182 s⁻¹
  kon: 7410 M⁻¹ s⁻¹
[3]
  Kd: 39.5 nM
  koff: 0.00015 s⁻¹
  kon: 3800 M⁻¹ s⁻¹
[4]
  Kd: 281 nM
  koff: 0.00177 s⁻¹
  kon: 6290 M⁻¹ s⁻¹

B12: A4-H5 (VHH)
VHH: VQLQASGGGFVQPGGSLRLSCAASGRGFSINTMGWFRQAPGKERELVAVVTRGGTTYYADSVKGRFTISRDNSKNTVYLQMNSLRAEDTAVYYCHVDEVRQSSWTTSNLWGQGTQVTVSS
[5]
  Kd: 823 nM
  koff: 0.00152 s⁻¹
  kon: 1850 M⁻¹ s⁻¹
[6]
  Kd: 1900 nM
  koff: 0.0058 s⁻¹
  kon: 3050 M⁻¹ s⁻¹
[7]
  Kd: 302 nM
  koff: 0.0013 s⁻¹
  kon: 4300 M⁻¹ s⁻¹

B13: A4-H2 (VHH)
VHH: VQLQASGGGFVQPGGSLRLSCAASGRSFSINTMGWFRQAPGKEREFVAVVTRGGSTYYADSVKGRFTISRDNSKNTVYLQMNSLRAEDTATYYCHIDEVRQSSWTTSNIWGQGTQVTVSS
[5]
  Kd: 8.51 nM
  koff: 0.00139 s⁻¹
  kon: 163000 M⁻¹ s⁻¹
[6]
  Kd: 400 nM
  koff: 0.00188 s⁻¹
  kon: 4700 M⁻¹ s⁻¹
[7]
  Kd: 1.98 nM
  koff: 0.00028 s⁻¹
  kon: 141000 M⁻¹ s⁻¹
